Here are results for one molecule from publication PMC8477557 (2021).

The assay has as its target αCD123. As to the kind of experiment: SPR. (In general: In SPR one partner is held on a chip, and binding of the other changes the refractive index at the surface.)

The term Kd denotes the constant that tells how readily two partners part at equilibrium. A high value points to weaker binding.

B1: CD123 extracellular domain (domain or fragment)
chain: TKEDPNPPITNLRMKAKAQQLTWDLNRNVTDIECVKDADYSMPAVNNSYCQFGAISLCEVTNYTVRVANPPFSTWILFPENSGKPWAGAENLTCWIHDVDFLSCSWAVGPGAPADVQYDLYLNVANRRQQYECLHYKTDAQGTRIGCRFDDISRLSSGSQSSHILVRGRSAAFGIPCTDKFVVFSQIEILTPPNMTAKCNKTHSFMHWKMRSHFNRKFRYELQIQKRMQPVITEQVRDRTSFQLLNPGTYTVQIRARERVYEFLSAWSTPQRFECDQEEGANTRAWR
Take B1: the Kd turned out to be 1.2 nM.
